The record followed here is US20180346564A1 (TEIJIN PHARMA, published 2018).

Test [1] addresses Ser413 phosphorylated tau protein (pSer413-Tau) derived from Alzheimer's disease patient brain homogenate (human, UniProt P10636-8 2-441, limits assumed, phosphoserine at Ser413 (numbering of SEQ ID NO: 1)). Briefly: cell-based or functional assay.
The target in test [2] is T1, Peptide No. 5, pT217, H-GC-GSRSRTPSLP(pT)PPTREPKKVAVV-OH (human, phosphothreonine (pT) at peptide position 13 (tau Thr217)).
T1 peptide: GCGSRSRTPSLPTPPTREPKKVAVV
Briefly: ELISA, coated peptide. Summed up:
(§1)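 Wells were coated overnight at 4 °C with 50 μL of peptide, or its bovine serum albumin or keyhole limpet hemocyanin conjugate, at 1 μg/mL in cold PBS, then blocked overnight at 4 °C with 3% BSA-PBS. Purified antibody at 150 ng/mL in 3% BSA-PBS was applied for 90 minutes at room temperature, followed by alkaline phosphatase-labelled goat anti-human IgG (H+L) diluted 2000-fold for 60 minutes. Antibody binding was recorded as absorbance. After 40 minutes of pNPP development, plates were read at 405 nm against a 550 nm reference.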

In test [3] the target is T2, Peptide No. 7, pS396/pS400/pS404, H-GC-RENAKAKTDHGAEIVYK(pS)PVV(pS)GDT(pS)PRHL-OH (human, phosphoserine (pS) at peptide positions 20, 24 and 28 (tau Ser396, Ser400, Ser404)).
T2 peptide: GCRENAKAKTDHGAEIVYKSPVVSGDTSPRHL
The experiment in a line: ELISA, coated peptide. Put shortly: as §1

For test [4], the target named is T3, Peptide No. 4, pT212/pS214, H-GCGSPGTPGSRSR(pT)P(pS)LPTPPTREPK-OH (human, phosphothreonine (pT) at peptide position 14 (tau Thr212); phosphoserine (pS) at peptide position 16 (tau Ser214)).
T3 peptide: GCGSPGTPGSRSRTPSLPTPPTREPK
Briefly: ELISA, coated peptide. Summed up: as §1

The target in test [5] is T4, Peptide No. 2, pS199, H-SGYS(pS)PGSPGC-OH (human, SMILES N[C@@H](CO)C(=O)NCC(=O)N[C@@H](Cc1ccc(O)cc1)C(=O)N[C@@H](CO)C(=O)N[C@@H](COP(=O)(O)O)C(=O)N1CCC[C@H]1C(=O)NCC(=O)N[C@@H](CO)C(=O)N1CCC[C@H]1C(=O)NCC(=O)N[C@@H](CS)C(=O)O).
T4 peptide: H-SGYS[pS]PGSPGC-OH
The experiment in a line: ELISA, coated peptide. Summed up:
as §1

Test [6] has as its target T5, Peptide No. 3, pS202, H-SSPG(pS)PGTPC-OH (human, SMILES C[C@@H](O)[C@H](NC(=O)CNC(=O)[C@@H]1CCCN1C(=O)[C@H](COP(=O)(O)O)NC(=O)CNC(=O)[C@@H]1CCCN1C(=O)[C@H](CO)NC(=O)[C@@H](N)CO)C(=O)N1CCC[C@H]1C(=O)N[C@@H](CS)C(=O)O).
T5 peptide: H-SSPG[pS]PGTPC-OH
Briefly: ELISA, coated peptide. Summed up: as §1

For test [7], the target named is T6, Peptide No. 1, pS46, H-GLKE(pS)PLQT-OH (human, SMILES CC(C)C[C@H](NC(=O)CN)C(=O)N[C@@H](CCCCN)C(=O)N[C@@H](CCC(=O)O)C(=O)N[C@@H](COP(=O)(O)O)C(=O)N1CCC[C@H]1C(=O)N[C@@H](CC(C)C)C(=O)N[C@@H](CCC(N)=O)C(=O)N[C@H](C(=O)O)[C@@H](C)O).
T6 peptide: H-GLKE[pS]PLQT-OH
Briefly: ELISA, coated peptide. Put shortly: as §1

Test [8] has as its target T7, Peptide No. 6, pT231, H-KVAVVR(pT)PPKSPS-OH (human).
T7 peptide: H-KVAVVR[pT]PPKSPS-OH
Briefly: ELISA, coated peptide. Summed up: as §1

Test [9] deals with T8, Peptide No. 8, pS412, H-NV(pS)STGSC-OH (human, SMILES CC(C)[C@H](NC(=O)[C@@H](N)CC(N)=O)C(=O)N[C@@H](COP(=O)(O)O)C(=O)N[C@@H](CO)C(=O)N[C@H](C(=O)NCC(=O)N[C@@H](CO)C(=O)N[C@@H](CS)C(=O)O)[C@@H](C)O).
T8 peptide: H-NV[pS]STGSC-OH
Briefly: ELISA, coated peptide. Summed up:
as §1

In test [10] the target is T9, His-tagged non-phosphorylated tau protein 4R0N (human, UniProt P10636 2-758).
T9 construct: Produced by Escherichia coli; negative control in SPR; also called ATGen Cat. No. ATGP0795
The experiment in a line: SPR Biacore T200, antigen immobilized.

For test [11], the target named is T10, recombinant human phosphorylated Tau protein (80AWB) (human, UniProt P10636-8 1-441, limits assumed, phosphorylated; sites not stated).
T10 construct: also called Protein Immobilized
Briefly: SPR Biacore, phosphorylated Tau protein immobilized. As to the method:
Antibody binding to immobilized, phosphorylated Tau protein was measured using Series S Sensor Chips NTA (GE Healthcare, BR100034). The running buffer for the immobilization was 10 mM HEPES, 150 mM […], 0.05% v/v Surfactant P20, pH 7.4 (GE Healthcare, BR100671) and the flow rate was 10 μL/minute. 350 mM EDTA was injected for 1 minute to clean the chip, followed by a 2 minute injection of 0.5 mM NiCl₂ (GE Healthcare, NTA Reagent Kit) to prepare the chip to capture his-tagged protein. The chip was activated according to the manufacturer's instructions using an amine coupling kit (GE Healthcare, BR100633), then 300 nM phosphorylated Tau protein (80AWB) was injected until the desired amount of protein had been immobilized. The chip was blocked with ethanolamine from the amine coupling kit. Each experiment used multiple levels of immobilized phosphorylated Tau protein. The lowest level varied from 54 resonance units (RU) to 452 RU, and the highest level varied from 463 RU to 1020 RU. […] Each concentration and several buffer blanks were injected for 3 minutes at a flowrate of […]. The dissociation of the antibody was monitored for 15 minutes, then the surface was regenerated with a 30 second to 1 minute injection of 100 mM CAPS (Sigma, C6070), 1 M KCl (Sigma, P9541), 1 mM EDTA, 2 mM DTT, pH 10.5. […]

Test [12] has as its target T11, monophosphorylated tau peptide 1×P, TSPRHLSNVS(pS)TGSIDMVDSPC (human, phosphoserine (pS) at peptide position 11 (tau Ser413)).
T11 construct: also called 1xP; 1×P peptide
T11 peptide: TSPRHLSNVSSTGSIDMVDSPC
Briefly: SPR Biacore, 1×P peptide immobilized. As to the method:
Antibody binding to immobilized, phosphorylated Tau peptide was measured using a Series S Sensor Chip CM3 (GE Healthcare, BR100536). The chip was activated using an amine coupling kit, then 30 μg/mL phosphorylated Tau peptide (SEQ ID NO:75) in 10 mM sodium acetate, pH 5.0 was injected until 51 RU had been immobilized. The chip was blocked with ethanolamine. A negative control reference surface was prepared similarly, using non-phosphorylated Tau peptide ([…], SEQ ID NO:77). […] Each concentration and several buffer blanks were injected for 3 minutes at a flowrate of 45 μL/minute. The dissociation of the antibody was monitored for 15 minutes. The surface was regenerated with a 30 second injection of 100 mM hydrochloric acid (Fisher Scientific, SA56-1, Waltham, Mass.).
The data were processed and fit using Biacore™ M T200 Evaluation Software version 2.0 or Biacore™ 4000 Evaluation Software version 1.1 (GE Healthcare). The data were “double referenced” by subtracting the response from a negative control flowcell and subtracting the response from a buffer injection or the average response from two buffer injections. The data were then fit with the “1:1 Binding” model to determine the association rate constant, kₐ (M⁻¹s⁻¹, where “M” equals molar and “s” equals seconds) and the dissociation rate constant, kd (s⁻¹). […]

[ ]: non-standard residue; d: D form. pT = C[C@@H](OP(=O)(O)O)[C@H](N)C(=O)O; pS = N[C@@H](COP(=O)(O)O)C(=O)O

T9 sequence (P10636 other isoform, or with tags, fused parts or gaps limits assumed): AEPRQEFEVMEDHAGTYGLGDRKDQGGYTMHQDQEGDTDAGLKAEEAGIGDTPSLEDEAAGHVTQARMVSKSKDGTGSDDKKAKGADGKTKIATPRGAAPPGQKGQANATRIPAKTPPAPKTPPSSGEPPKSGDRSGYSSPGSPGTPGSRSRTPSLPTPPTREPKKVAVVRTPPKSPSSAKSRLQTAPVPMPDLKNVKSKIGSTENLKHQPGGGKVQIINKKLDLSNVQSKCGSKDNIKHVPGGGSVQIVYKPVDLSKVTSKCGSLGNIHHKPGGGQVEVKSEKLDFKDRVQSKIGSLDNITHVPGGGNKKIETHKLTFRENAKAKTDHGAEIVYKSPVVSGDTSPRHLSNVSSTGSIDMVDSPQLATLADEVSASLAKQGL
T10 sequence (P10636 other isoform, or with tags, fused parts or gaps limits assumed): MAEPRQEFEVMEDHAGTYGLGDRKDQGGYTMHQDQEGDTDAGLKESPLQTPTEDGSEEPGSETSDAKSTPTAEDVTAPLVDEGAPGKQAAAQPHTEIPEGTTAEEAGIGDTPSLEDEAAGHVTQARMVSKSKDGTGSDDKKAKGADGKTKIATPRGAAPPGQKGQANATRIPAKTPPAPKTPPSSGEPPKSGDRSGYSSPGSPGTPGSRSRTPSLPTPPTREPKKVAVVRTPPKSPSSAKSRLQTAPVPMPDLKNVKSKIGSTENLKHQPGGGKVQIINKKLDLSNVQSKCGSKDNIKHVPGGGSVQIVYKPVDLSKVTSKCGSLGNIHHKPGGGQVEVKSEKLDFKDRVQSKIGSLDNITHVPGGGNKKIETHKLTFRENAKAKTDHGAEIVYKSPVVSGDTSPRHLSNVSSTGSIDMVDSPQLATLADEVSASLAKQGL
Ser413 phosphorylated tau protein (pSer413-Tau) derived from Alzheimer's disease patient brain homogenate, sequence (P10636 other isoform, or with tags, fused parts or gaps limits assumed): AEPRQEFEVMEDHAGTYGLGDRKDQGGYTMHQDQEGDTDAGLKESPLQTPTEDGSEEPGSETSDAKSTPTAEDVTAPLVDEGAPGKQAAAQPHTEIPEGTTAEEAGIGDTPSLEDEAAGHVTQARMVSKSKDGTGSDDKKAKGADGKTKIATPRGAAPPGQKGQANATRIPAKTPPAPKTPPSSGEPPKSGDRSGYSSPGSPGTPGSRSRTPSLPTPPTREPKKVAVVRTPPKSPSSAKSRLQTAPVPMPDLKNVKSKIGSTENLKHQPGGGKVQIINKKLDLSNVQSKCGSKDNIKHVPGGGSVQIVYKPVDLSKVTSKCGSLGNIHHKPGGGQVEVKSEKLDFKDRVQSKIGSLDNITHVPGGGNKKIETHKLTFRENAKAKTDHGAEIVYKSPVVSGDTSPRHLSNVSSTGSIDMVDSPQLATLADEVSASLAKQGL

B1: Humanized × [MAPT_H] mAb (Ta1505 VL46/VH11) IgG4 S228P/Kappa (CX) (antibody)
heavy: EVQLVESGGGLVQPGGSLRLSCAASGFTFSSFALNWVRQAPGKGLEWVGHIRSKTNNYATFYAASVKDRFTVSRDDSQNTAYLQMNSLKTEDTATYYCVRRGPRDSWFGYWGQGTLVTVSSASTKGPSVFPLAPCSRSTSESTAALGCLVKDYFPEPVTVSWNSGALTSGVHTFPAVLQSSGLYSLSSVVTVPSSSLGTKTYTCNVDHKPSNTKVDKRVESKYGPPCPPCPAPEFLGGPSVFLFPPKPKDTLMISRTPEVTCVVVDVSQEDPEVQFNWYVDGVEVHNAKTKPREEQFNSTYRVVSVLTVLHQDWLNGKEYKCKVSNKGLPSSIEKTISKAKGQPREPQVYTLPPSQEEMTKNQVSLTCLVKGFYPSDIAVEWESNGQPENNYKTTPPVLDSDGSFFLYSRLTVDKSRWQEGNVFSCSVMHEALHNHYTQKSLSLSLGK
light: DIVMTQSPLSLPVTLGEPASISCRSSQSIVHSNGNTYLEWYLQKPGQSPQLLIYTVSNRFSGVPDRFSGSGSGTDFTLKISRVEAEDLGVYYCFQGSHLPLTFGGGTKVEIKRTVAAPSVFIFPPSDEQLKSGTASVVCLLNNFYPREAKVQWKVDNALQSGNSQESVTEQDSKDSTYSLSSTLTLSKADYEKHKVYACEVTHQGLSSPVTKSFNRGEC
B1: in test [1], the “IC50 of the fall of the AT8 AlphaLISA signal with the antibody concentration (signal falls from about 7500 to about 4400 at the highest concentration, about 400 nM; no lower plateau)” value came to 175 nM.

B2: humanized antibody L50H11 (antibody, human IgG1, kappa, V domains shown)
VH: EVQLVESGGGLVQPGGSLRLSCAASGFTFSSFALNWVRQAPGKGLEWVGHIRSKTNNYATFYAASVKDRFTVSRDDSQNTAYLQMNSLKTEDTATYYCVRRGPRDSWFGYWGQGTLVTVSS
VL: DIVMTQSPLSLPVTLGDPASISCRSSQNIVHSNGNTYLEWYQQKPGQSPRLLIYTVSNRFSGVPDRFSGSGSGTDFTLKISRVEAEDLGVYYCFQGSHLPLTFGGGTKVEIKR
notes: VL50/VH11, human IgG1/kappa
For B2, the binding result in test [2], in test [3], in test [4], in test [5], in test [6] and in [7] was “no binding (tested: OD value <0.5; antibody 150 ng/mL)” each time. For the same molecule, the binding result in [8] is “no binding (tested: OD value <0.5; antibody 150 ng/mL)”; in [9], “no binding (tested: OD value <0.5; antibody 150 ng/mL)”; in [10] it was “no binding (tested: 0.2 to 1 nM)”.

B3: Humanized × [MAPT_H] mAb (Ta1505-VL46_G34S/VH11) IgG4 S228P/Kappa (CX) (antibody, V domains shown)
VH: EVQLVESGGGLVQPGGSLRLSCAASGFTFSSFALNWVRQAPGKGLEWVGHIRSKTNNYATFYAASVKDRFTVSRDDSQNTAYLQMNSLKTEDTATYYCVRRGPRDSWFGYWGQGTLVTVSS
VL: DIVMTQSPLSLPVTLGEPASISCRSSQSIVHSNSNTYLEWYLQKPGQSPQLLIYTVSNRFSGVPDRFSGSGSGTDFTLKISRVEAEDLGVYYCFQGSHLPLTFGGGTKVEIKR
notes: also called hu VL46/VH11 G34S IgG4
With B3, the binding result in test [11] and in [12] was “no binding (tested: 0.37 nM to 30 nM antibody)” throughout.
